# Data taken from the nanobody polyreactivity screen of Harvey et al. (2022).
# Assay: yeast display, Sf9 membrane polyspecificity reagent, FACS + sequencing; frameworks hold sequencing errors
# In short: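 Nanobodies from a synthetic yeast display library (Saccharomyces cerevisiae BJ5465), induced 36–48 hours with galactose, were stained 1 hour at 4 °C with 10% biotinylated, detergent-solubilized Sf9 membrane reagent, enriched on streptavidin microbeads, then FACS-sorted. Anti-HA (expression) and streptavidin (reagent binding) fluorescence set low and high (top ~1%) gates. Polyreactivity labels come from the gate of origin. Genes were colony-PCR amplified, MiSeq 2 × 250 sequenced and filtered by CDR length.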
row,Sequence,polyreactivity (PSR sort gate)
1,QVQLVESGGGLVQAGGSLRLSCAASGSIYRYNDMGWYRQAPGKERELVATITSGTNTYYADSVKGRFTISRDNAKNTVYLQMNSLKPEDTAVYYCAKSYIAWDGRTFEEMYYWGQGTQVTVSS,low polyreactivity
2,QVQLVESGGGLVQAGGSLRLSCAASGSTFKRYVMGWYRQAPGKERELVAAISSRGGSTYYADSVKGRFTISRDNAKNTVYLQMNSLKPEDTAVYYCASANVRAEDYWGQGTQVTVSS,high polyreactivity
3,QVQLVESGGGLVQAGGSLRLSCAASGFTFSFYAMGWYRQAPGKERELVAVISRSGGGTYYADSVKGRFTISRDNAKHTVYLQMNSLKPEDTAVYYCAARLGNRRYDYWGQGTQVTVSS,high polyreactivity
4,QVHLVESGGGLVQAGGSLRLSCAASGRIFDYYAMGWYRQAPGKERELVARITSGGTTNYADSVKGRFTISRDNENNTVYLQMNSLKPEYTEVYYCKAHDYSDPLQMDYWGQGTQVTVSS,low polyreactivity
5,QVQLVESGGGLVQAGGSLRLSSAASGRTIAYYTKGWYRQAPGKVRELVAAITWTGGRTYYPDSVKGRFTISRDIAKNTVYLQMNSLQPEDTAVYYCATQHRAGAYYLYTPYDYWGQGTQVTVSS,high polyreactivity
6,QVQLVESGGGVVQAGGSLRLSCAASGSTFHYYAMGWYRQAHGKERELVAAISYSSGSTYYADSVKGRVTISRDNAKNHVYLQMISLKPEDTAVYYCATESYSYYIHTTYYYWGQGTQVTLSS,low polyreactivity
7,QVQLVESGGGLVQAGGSLRLSCAASGITFDNNAMGWYRQAPGKEREFVADIDGSGGSTYYADSVKGRFTISRDNAKNTVYLQMNSLKPEDTAVYYCNAGYVHSFDYWGQGTQVTVSS,low polyreactivity
8,QVQLVESGGGLVQAGGSLRISCAASGSTVHYMAWYRQAPGKEREMVAGISWSGGSTYYADSVKGRFTISRDNAKNTVYLQMNSLKPEETAVYYCAADHFNYTSGRDYWGQGTQVTVSS,low polyreactivity
9,QVQLQDSGGGLVQAGGSLRLSCAASGSISIYGYMGWYRQAPGNERELVAAITAGGSTYYADSVKGRFTISRDNAKNTVYLLMKSLKPEDTAVYYCAPYEQRVYDLHYWGQGTQVTVSS,high polyreactivity
10,QVQLVESGGGLVQAGGSLRLSCAASGYIFGSYVMGWYRQAPGKERELVAAITRIGASTYYADSVKGRFTISRDNAKNNVYLQMNSLKPEDTAVYYCATDQGGYYENDYWGQGNQVTVSS,low polyreactivity
11,QVQLVESGGGLVQAGGSLRLSCAASGRTLVTNAMGWYRQAPGKERELVAAIDSDDGTTYYADSVKGRFTISRDNAKKTVYLQMNSLKPEDTAVYYCAAESYWRDDYWGQGTQVTVSS,low polyreactivity
12,QVQLVESGGGLVQAGGSLRLSCAASGRTFYYYAMGWYRPAPGKERELVAAIRRSGSSTYYADSVKGRFTISRDNAKNTVYLQMNSLKPEDTAVYYCAAAVYQRARYYWGQGTQVTVSS,high polyreactivity
13,QVQLVESGGGLVQAGGSLRLSCAASGNIFDVYAMGWYRQAPGKERELVAAISRSGSSTYYADSVKGRFTISRDNAKNTVYLQMNSLKQEDTAVYYCAAKISLGQRTYYYWGQGTQVTVSS,high polyreactivity
14,QVQLVESGGGLVQAGGSLRLSCAASGRTFDVNAMGWYRQAPGKERELVAAIRISGGSTYYADSVKGRFTISRDNAKNTVYLQMNSLKPEDTAVYYCAAYERRYRNAYDYWGQGTQVTVSS,high polyreactivity
15,QVQLVESGGGIVQAGGSLPLSCAASGIIFSVNAMGWYRQAPGKERELVAAITYSGGSTYYADSVKGRYTISRDNAKNTVYLQMNSLKPEVTAVYYCAAETYSSGEWYDYWGQGTQVTVSS,high polyreactivity
16,QVQLVESGGGLVQAGGSLRLSCAASGSIFQLNAKGWYRQAPGKERELVAAITWSGDSTYYADSVKGRFTISRDNAKNTVYLQMNSLKPEDTAVYYCAADVLTTPPPREFEYWGQGTQVTVSS,high polyreactivity
17,QVQLLESGGGLVQAGGFLRLSCASSGSTFFIYAMGWYRPAPGKERELDAAISWSGGSTYYADSVKGRFTISPDKANNTVYLQMICLKPEYTAVYYCADESYYFDEYYWGQATQVTVSS,high polyreactivity
